Paper PMC13544220, “Glycemic and bodyweight effects of GIPR coding variation reflect differences in surface expression and intrinsic functional impairment” (Science Advances, 2026)

Key:
Format in all cases: cell-based, human
[1] = system: wild-type and variant SNAP-GIPR; assay: Surface SNAP-GIPR expression (SNAP-tag labelling) in AD293 cells; details: for AD293 Surface: Fig S3E, mean; for Surface SNAP-GIPR expression: sheet Fig 1C;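 for all read-outs here: scaled to the experimental average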
Outline: (§1)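 Surface GIPR is quantified from wide-field images after labelling intact transfected cells with a membrane-impermeant SNAP probe at 500 nM for 10 min at room temperature. Specific signal, corrected for nontransfected cells, is normalized to the experiment-wide average or to wild-type.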

[2] = system: wild-type and variant SNAP-GIPR; assay: Single-concentration GIP cAMP response by HTRF in INS-1 cells; details: Fig S3E, mean
Procedure: (§2) All variants were tested in parallel on each occasion to control for transfection efficiency differences between experiments.

[3] = system: wild-type and variant SNAP-GIPR; assay: cADDis cAMP imaging in AD293 cells, ensemble, expression-matched and per decile; details: Fig S3F, cADDis, mean
Outline: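 Per-cell cAMP from cADDis intensity over time, with cells excluded by IBMX/FSK response criteria. Expression matching used wild-type surface-SNAP deciles, top and bottom trimmed, mean of decile means. Ensemble values ignore deciles. Wide-field imaging at 37 °C in KRBH with 6 mM glucose, 0.1% BSA, 24 h post-transfection in AD293.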

[4] = system: wild-type and variant SNAP-GIPR; assay: Constitutive and agonist-mediated internalization, reversible SNAP-tag labelling, INS-1 cells; parameters: key to Internalisation, GIP-only / Internalisation, Vehicle / Internalisation, +GIP: % internalization: residual fluorescence after Mesna vs pre-Mesna; details: Mean; for +GIP internalisation (100 nM) / GIP-specific internalisation (100 nM) / Constitutive internalisation (100 nM): Fig 4G; for +GIP internalisation (100 nM) / GIP-specific internalisation (100 nM): GIP 100 nM; for Internalisation, +GIP / Internalisation, GIP-only / Internalisation, Vehicle: Fig S4C, INS-1
Outline: (§3)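 % internalization = residual specific fluorescence after Mesna / pre-Mesna value. Imaging in TNE buffer pH 8.6; second image 10 min post-Mesna.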

[5] = system: wild-type and variant SNAP-GIPR; assay: Surface SNAP-GIPR expression (SNAP-tag labelling) in INS-1 cells; details: Fig 4G; Mean
Outline: as §1

[6] = system: wild-type and variant SNAP-GIPR; assay: Single-concentration GIP cAMP response by HTRF in AD293 cells; details: Fig S3F, HTRF, mean;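 note: ratio to experiment-wide average response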
Procedure: as §2

[7] = system: wild-type and variant SNAP-GIPR; assay: Constitutive and agonist-mediated internalization, reversible SNAP-tag labelling, AD293 cells; parameters: key to Internalisation, Vehicle / Internalisation, +GIP / Internalisation, GIP-only: % internalization: residual fluorescence after Mesna vs pre-Mesna; Surface expression: unit not given here; details: Mean; for +GIP internalisation (100 nM) / GIP-specific internalisation (100 nM) / Constitutive internalisation (100 nM) / Surface expression: Fig 4E; for +GIP internalisation (100 nM) / GIP-specific internalisation (100 nM): GIP 100 nM; for Internalisation, +GIP / Internalisation, GIP-only / Internalisation, Vehicle: Fig S4C, AD293
Outline: as §3

[8] = column repeated, paired with cAMP 100 nM

B1: L100F (protein, UniProt P48546 22-466, looked up, variant L100F)
Gastric inhibitory …: RAETGSKGQTAGELYQRWERYRRECQETLAAAEPPSGLACNGSFDMYVCWDYAAPNATARASCPWYLPWHHHVAAGFVFRQCGSDGQWGLWRDHTQCENPEKNEAFLDQRLILERLQVMYTVGYSLSLATLLLALLILSLFRRLHCTRNYIHINLFTSFMLRAAAILSRDRLLPRPGPYLGDQALALWNQALAACRTAQIVTQYCVGANYTWLLVEGVYLHSLLVLVGGSEEGHFRYYLLLGWGAPALFVIPWVIVRYLYENTQCWERNEVKAIWWIIRTPILMTILINFLIFIRILGILLSKLRTRQMRCRDYRLRLARSTLTLVPLLGVHEVVFAPVTEEQARGALRFAKLGFEIFLSSFQGFLVSVLYCFINKEVQSEIRRGWHHCRLRRSLGEEQRQLPERAFRALPSGSGPGEVPTSRGLSSGTLPGPGNEASRELESYC
[1]; [8]
  AD293 Surface: 1.501
[1]; paired with cAMP 100 pM
  AD293 Surface: 1.501
[1]; replicate 1
  Surface SNAP-GIPR expression: 1.524
[1]; replicate 2
  Surface SNAP-GIPR expression: 1.675
[1]; replicate 3
  Surface SNAP-GIPR expression: 1.679
[1]; replicate 4
  Surface SNAP-GIPR expression: 1.13
[1]; replicate 5
  Surface SNAP-GIPR expression: 1.597
[1]; replicate 6
  Surface SNAP-GIPR expression: 1.532
[1]; replicate 7
  Surface SNAP-GIPR expression: 1.271
[1]; replicate 8
  Surface SNAP-GIPR expression: 1.313
[1]; replicate 9
  Surface SNAP-GIPR expression: 1.282
[1]; replicate 10
  Surface SNAP-GIPR expression: 1.519
[1]; replicate 11
  Surface SNAP-GIPR expression: 1.303
[1]; replicate 12
  Surface SNAP-GIPR expression: 1.295
[1]; replicate 13
  Surface SNAP-GIPR expression: 1.669
[1]; replicate 14
  Surface SNAP-GIPR expression: 1.299
[1]; replicate 15
  Surface SNAP-GIPR expression: 1.522
[1]; replicate 16
  Surface SNAP-GIPR expression: 1.442
[1]; replicate 17
  Surface SNAP-GIPR expression: 1.643
[1]; replicate 18
  Surface SNAP-GIPR expression: 1.736
[1]; replicate 19
  Surface SNAP-GIPR expression: 1.668
[1]; replicate 20
  Surface SNAP-GIPR expression: 1.712
[1]; replicate 21
  Surface SNAP-GIPR expression: 1.622
[1]; replicate 22
  Surface SNAP-GIPR expression: 1.675
[1]; replicate 23
  Surface SNAP-GIPR expression: 1.531
[1]; replicate 24
  Surface SNAP-GIPR expression: 1.559
[1]; replicate 25
  Surface SNAP-GIPR expression: 1.328
[1]; replicate 26
  Surface SNAP-GIPR expression: 1.878
[1]; replicate 27
  Surface SNAP-GIPR expression: 1.259
[1]; replicate 28
  Surface SNAP-GIPR expression: 1.697
[1]; replicate 29
  Surface SNAP-GIPR expression: 1.401
[1]; replicate 30
  Surface SNAP-GIPR expression: 1.456
[1]; replicate 31
  Surface SNAP-GIPR expression: 1.661
[1]; replicate 32
  Surface SNAP-GIPR expression: 1.58
[1]; replicate 33
  Surface SNAP-GIPR expression: 1.459
[1]; replicate 34
  Surface SNAP-GIPR expression: 1.249
[1]; replicate 35
  Surface SNAP-GIPR expression: 1.682
[1]; replicate 36
  Surface SNAP-GIPR expression: 1.611
[1]; replicate 37
  Surface SNAP-GIPR expression: 1.381
[1]; replicate 38
  Surface SNAP-GIPR expression: 1.301
[1]; replicate 39
  Surface SNAP-GIPR expression: 1.418
[1]; replicate 40
  Surface SNAP-GIPR expression: 1.406
[1]; replicate 41
  Surface SNAP-GIPR expression: 1.553
[2]
  INS-1 cAMP (100 nM): 1.416
[3]
  AD293 100 pM cADDis: 37.4091
  AD293 100 nM cADDis: 36.85
[4]
  +GIP internalisation (100 nM): 0.7901
  GIP-specific internalisation (100 nM): 0.1883
  Constitutive internalisation (100 nM): 0.6018
  Internalisation, +GIP: 47.6567
  Internalisation, GIP-only: 11.2267
  Internalisation, Vehicle: 36.43
[5]
  Surface expression: 1.643
[6]
  AD293 100 pM HTRF: 1.607
  AD293 100 nM HTRF: 1.598
[7]
  +GIP internalisation (100 nM): 0.8469
  GIP-specific internalisation (100 nM): 0.2452
  Constitutive internalisation (100 nM): 0.6017
  Surface expression: 1.442
  Internalisation, +GIP: 58.6424
  Internalisation, GIP-only: 16.9646
  Internalisation, Vehicle: 41.6779

B2: A207V (protein)
chain: RAETGSKGQTAGELYQRWERYRRECQETLAAAEPPSGLACNGSFDMYVCWDYAAPNATARASCPWYLPWHHHVAAGFVLRQCGSDGQWGLWRDHTQCENPEKNEAFLDQRLILERLQVMYTVGYSLSLATLLLALLILSLFRRLHCTRNYIHINLFTSFMLRAAAILSRDRLLPRPGPYLGDQALVLWNQALAACRTAQIVTQYCVGANYTWLLVEGVYLHSLLVLVGGSEEGHFRYYLLLGWGAPALFVIPWVIVRYLYENTQCWERNEVKAIWWIIRTPILMTILINFLIFIRILGILLSKLRTRQMRCRDYRLRLARSTLTLVPLLGVHEVVFAPVTEEQARGALRFAKLGFEIFLSSFQGFLVSVLYCFINKEVQSEIRRGWHHCRLRRSLGEEQRQLPERAFRALPSGSGPGEVPTSRGLSSGTLPGPGNEASRELESYC
[1]; [8]
  AD293 Surface: 1.462
[1]; paired with cAMP 100 pM
  AD293 Surface: 1.462
[1]; replicate 1
  Surface SNAP-GIPR expression: 1.611
[1]; replicate 2
  Surface SNAP-GIPR expression: 2.305
[1]; replicate 3
  Surface SNAP-GIPR expression: 1.718
[1]; replicate 4
  Surface SNAP-GIPR expression: 1.422
[1]; replicate 5
  Surface SNAP-GIPR expression: 1.389
[1]; replicate 6
  Surface SNAP-GIPR expression: 1.632
[1]; replicate 7
  Surface SNAP-GIPR expression: 1.104
[1]; replicate 8
  Surface SNAP-GIPR expression: 1.459
[1]; replicate 9
  Surface SNAP-GIPR expression: 1.373
[1]; replicate 10
  Surface SNAP-GIPR expression: 1.394
[1]; replicate 11
  Surface SNAP-GIPR expression: 1.581
[1]; replicate 12
  Surface SNAP-GIPR expression: 1.452
[1]; replicate 13
  Surface SNAP-GIPR expression: 1.286
[1]; replicate 14
  Surface SNAP-GIPR expression: 1.785
[1]; replicate 15
  Surface SNAP-GIPR expression: 1.758
[1]; replicate 16
  Surface SNAP-GIPR expression: 1.437
[1]; replicate 17
  Surface SNAP-GIPR expression: 1.378
[1]; replicate 18
  Surface SNAP-GIPR expression: 1.497
[1]; replicate 19
  Surface SNAP-GIPR expression: 1.272
[1]; replicate 20
  Surface SNAP-GIPR expression: 1.519
[1]; replicate 21
  Surface SNAP-GIPR expression: 1.502
[1]; replicate 22
  Surface SNAP-GIPR expression: 1.331
[1]; replicate 23
  Surface SNAP-GIPR expression: 1.374
[1]; replicate 24
  Surface SNAP-GIPR expression: 1.462
[1]; replicate 25
  Surface SNAP-GIPR expression: 1.289
[1]; replicate 26
  Surface SNAP-GIPR expression: 1.598
[1]; replicate 27
  Surface SNAP-GIPR expression: 1.353
[1]; replicate 28
  Surface SNAP-GIPR expression: 1.177
[1]; replicate 29
  Surface SNAP-GIPR expression: 1.377
[1]; replicate 30
  Surface SNAP-GIPR expression: 1.555
[1]; replicate 31
  Surface SNAP-GIPR expression: 1.582
[1]; replicate 32
  Surface SNAP-GIPR expression: 1.61
[1]; replicate 33
  Surface SNAP-GIPR expression: 1.695
[1]; replicate 34
  Surface SNAP-GIPR expression: 1.496
[1]; replicate 35
  Surface SNAP-GIPR expression: 1.543
[1]; replicate 36
  Surface SNAP-GIPR expression: 1.703
[1]; replicate 37
  Surface SNAP-GIPR expression: 1.143
[1]; replicate 38
  Surface SNAP-GIPR expression: 1.04
[1]; replicate 39
  Surface SNAP-GIPR expression: 1.054
[1]; replicate 40
  Surface SNAP-GIPR expression: 1.392
[1]; replicate 41
  Surface SNAP-GIPR expression: 1.284
[2]
  INS-1 cAMP (100 nM): 1.4138
[3]
  AD293 100 pM cADDis: 35.8816
  AD293 100 nM cADDis: 38.26
[4]
  +GIP internalisation (100 nM): 0.5824
  GIP-specific internalisation (100 nM): 0.1595
  Constitutive internalisation (100 nM): 0.4229
  Internalisation, +GIP: 49.74
  Internalisation, GIP-only: 13.34
  Internalisation, Vehicle: 36.4
[5]
  Surface expression: 1.239
[6]
  AD293 100 pM HTRF: 1.772
  AD293 100 nM HTRF: 1.3964
[7]
  +GIP internalisation (100 nM): 0.7742
  GIP-specific internalisation (100 nM): 0.2212
  Constitutive internalisation (100 nM): 0.553
  Surface expression: 1.34
  Internalisation, +GIP: 58.1109
  Internalisation, GIP-only: 16.6766
  Internalisation, Vehicle: 41.4343
